{"source": "paper PMC5712780", "about": "“Ymr210wp leads to the accumulation of phospholipids and steryl esters in yeast” (Bioinformation, 2017)", "proteins": {"B1": {"name": "Ymr210wp (Saccharomyces cerevisiae S288C) (protein)", "chain": "MRLKELLPNFLIVHQEVPEDPIAFKSTDKRENENKEITIPELIDTKVPELADGATDTLYGLLVNGHLQTAYGSFRHFDNIYKVQYKRMIIKYPHGGEGTVDFAVNGRSTKRRKVEKEYVPTSQPVFNGNLKRRYSYYSPDDPKLNSDDAKPMLIILHGLTGGSRESYVRAIVHEITTKYDFEACVFNARGCCYSAITTPLLYNGGWTNDIRYCVNDLRKRFPNRKFYMMGFSLGASIMTNYLGEESDRTKIECAISVSNPFDLYNSAYFINSTPMGSRFYSPALGHNLLRMVRNHLSTLEENPDFKDVIEKHLKKIRTVRQFDNLLTGPMFGYKNAEEYYKNASSYKRIPGIRTPFIALHAQDDPIVGGDLPIDQIKSNPYTLLLETSTGGHVGWFKDRSGRRWYAEPLCRFLKIFHDEITVKGLKPDLENVQLPDPNCEPIATTFRAN", "notes": "YMR210w cloned in pYES2/CT, His-tagged, expressed in S. cerevisiae BY4741, Ni-NTA purified"}}, "experiment_in_all_cases": "p-nitrophenyl ester hydrolysis assay, Michaelis-Menten fit", "type_in_all_cases": "biochemical, Saccharomyces cerevisiae", "key": {"[1]": {"substrate": "CCCCCCCCCCCCCCCC(=O)Oc1ccc([N+](=O)[O-])cc1", "details": "optimum pH 8.5 and 45°C (kinetic conditions not stated); pH 8.5; 45.0 °C", "excerpt": "(§1) p-nitrophenyl ester hydrolysis assay, Michaelis-Menten fit on Ymr210wp"}, "[2]": {"substrate": "CCCC(=O)Oc1ccc([N+](=O)[O-])cc1", "details": "optimum pH 7.5 and 30°C (kinetic conditions not stated); pH 7.5; 30.0 °C", "excerpt": "as §1"}, "[3]": {"substrate": "CC(=O)Oc1ccc([N+](=O)[O-])cc1", "details": "optimum pH 7.5 and 30°C (kinetic conditions not stated); text b29 prints error ±2.95; pH 7.5; 30.0 °C", "excerpt": "as §1"}}}
{"protein": "B1", "values": [{"measurement": "Km", "setting": "[1]", "result": "13.19 ± 1.03", "unit": "mM"}, {"measurement": "Km", "setting": "[2]", "result": "7.28 ± 1.61", "unit": "mM"}, {"measurement": "Km", "setting": "[3]", "result": "11.51 ± 1.09", "unit": "mM"}]}
